Laboratory results published in article PMC11088876, “Activin E is a transforming growth factor β ligand that signals specifically through activin receptor-like kinase 7” (Biochemical Journal, 2024).

Biological target: the molecule itself
Test: SDS-PAGE under non-reducing and reducing conditions with anti-Flag western blot; conditioned medium of transfected ExpiCHO-S cells; 15% SDS gels; covalent (disulfide-linked) dimer against monomer

B1: Flag-tagged mature ActE from Construct II (ligand, human, UniProt P58166 237-350, looked up)
chain: TPTCEPATPLCCRRDHYVDFQELGWRDWILQPEGYQLNYCSGQCPPHLAGSPGIAASFHSAVFSLLKANNPWPASTSCCVPTARRPLSLLYLDHNGNVVKTDVPDMVVEACGCS
notes: A233R lies in the furin site before the cut and is surmised not to stand in the mature chain; Furin processing was incomplete: the medium also holds singly and doubly unprocessed species and a smaller clipping product; also called Flag-ActE; ActE Construct II; source: ExpiCHO-S, transfected, conditioned medium (concentrated 20x); not shown: Flag, N-terminal, kept
  stoichiometry N: 2
